The results in this text go back to patent publication US20200207868A1.

The assay deals with full-length extracellular region of human FGFR1 (human) (UniProt P11362). The assay can be described thus: BLI, target binding to sensor-immobilized Fab. For orientation: In BLI a coated tip is dipped into the sample, and binding shifts an interference pattern.

B1: Library-S Fab against FGFR1 (Fab, V domains shown)
VH: EVQLVESGGGLVQPGGSLRLSCAASGFTFSSYGMHWVRQAPGKGLEWVAVISYDGSNKYYADSVKGRFTISRDNSKNTLYLQMNSLRAEDTAVYYCARSGRYGTYKGDFDYWGQGTLVTVSS
VL: DIQMTQSPSSLSASVGDRVTITCRASQGISNYLAWYQQKPGKAPKLLIYAASSLQSGVPSRFSGSRSGTDFTLTISSLQPEDFATYYCQQSYRSPLTFGQGTKVEIK
A word on the Kd: it is a measure of binding affinity in units of concentration. Consider B1, for which the Kd is 22.4 nM.
